Results from patent US20180094060A1 (PIERRE FABRE MEDICAMENT, published 2018).

Target: T1, recombinant human insulin receptor (human, UniProt P06213-2 28-944, limits assumed)
T1 construct: ELISA coating protein; also called rhIR; human IR
Experiment: direct ELISA, coated protein 1 µg/ml, hybridoma supernatant
Method: Further characterizations of 810D12 antibody were then performed using hybridoma supernatants such as rhIGF-1R or rmIGF-1R or rhIR ELISA. In all direct ELISAs, proteins of interest were immobilized (1 μg/ml) to the bottom of each well. After saturation, hybridoma supernatants were added to the wells. After a 1-hour incubation period and a washing step, a solution of goat anti-mouse IgG-HRP labelled polyclonal antibody was used for detection, prior to the addition of the TMB substrate. The reaction was stopped with a 1M H₂SO₄ solution before reading the OD with a spectrophotometer at a 450 nm wavelength.

T1 sequence (P06213 other isoform, or with tags, fused parts or gaps limits assumed): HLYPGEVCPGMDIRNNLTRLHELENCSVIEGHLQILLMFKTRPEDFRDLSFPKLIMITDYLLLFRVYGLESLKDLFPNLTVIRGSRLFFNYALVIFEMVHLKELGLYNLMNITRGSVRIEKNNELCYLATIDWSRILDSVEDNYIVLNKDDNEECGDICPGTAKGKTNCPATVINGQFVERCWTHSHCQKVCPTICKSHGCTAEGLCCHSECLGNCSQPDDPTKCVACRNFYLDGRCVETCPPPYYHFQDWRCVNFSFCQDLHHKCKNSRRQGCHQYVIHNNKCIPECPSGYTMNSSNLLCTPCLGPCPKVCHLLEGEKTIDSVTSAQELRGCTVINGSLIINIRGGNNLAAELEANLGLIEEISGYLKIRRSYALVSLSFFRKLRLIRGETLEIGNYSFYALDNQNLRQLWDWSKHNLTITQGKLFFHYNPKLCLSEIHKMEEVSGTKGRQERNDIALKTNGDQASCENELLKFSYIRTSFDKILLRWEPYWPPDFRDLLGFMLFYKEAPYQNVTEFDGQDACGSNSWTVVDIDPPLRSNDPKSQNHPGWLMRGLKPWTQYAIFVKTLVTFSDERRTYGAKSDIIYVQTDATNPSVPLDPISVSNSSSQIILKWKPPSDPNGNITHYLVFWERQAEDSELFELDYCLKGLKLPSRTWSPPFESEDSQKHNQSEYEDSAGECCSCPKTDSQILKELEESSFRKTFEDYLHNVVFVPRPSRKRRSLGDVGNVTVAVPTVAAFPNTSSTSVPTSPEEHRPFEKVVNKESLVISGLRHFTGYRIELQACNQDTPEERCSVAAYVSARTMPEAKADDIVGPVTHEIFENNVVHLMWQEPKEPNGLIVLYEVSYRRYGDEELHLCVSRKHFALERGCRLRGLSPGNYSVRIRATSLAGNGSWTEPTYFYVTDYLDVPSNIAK

- binding result: no binding (tested: 5 µg/ml)
B1: 810D12 monoclonal antibody (secreted by hybridoma CNCM I-4893) (antibody, V domains shown)
VH: EVQLQQSGPELVKPGASVKMSCKASGHTFTSYMLHWVKQKPGQGLEWLGFINPYNDVTKYNENFKGKATLTSDKSSSTAYMELNSLTSEDSAVYFCVTTAYYGNGRYFDVWGAGTTVTVSS
VL: DIQMTQTTSSLSASLGDRVTISCRASQDITNYLTWYQQKPDGTVKVLIYYTSRLYSGVPSRFSGSGSGSDYSLTINNLEQEDIATYFCQQGYSLPWTFGGGTKLEIK
notes: Murine monoclonal antibody from a Balb/C hybridoma; The ELISAs used hybridoma supernatant; also called 810D12 antibody; 810D12I-4893
